Source: patent US20160145654A1

Assays:
[1] = target: labeled mouse IgG2b monoclonal antibody conjugated to phycoerythrin; assay: FACS of particles with 10 µg/mL PE labeled mouse IgG2b mAb
[2] = target: human IgG from pooled human serum (Sigma-Aldrich); assay: ELISA, granules coated on wells, pooled human serum, polyclonal anti-IgG-HRP, OPD
[3] = target: labeled mouse IgG2b monoclonal antibody conjugated to phycoerythrin; assay: FACS of particles with 10 µg/ml PE labeled mouse IgG2b mAb
[4] = target: human IgG from pooled human serum (Sigma-Aldrich); assay: ELISA of heated granules, human serum, anti-IgG-HRP

ZZ domain-PHA synthase fusion without signal peptide, on PHA granules (from UniProt P23608 1-589)
fold increased binding affinity against particles from pBHR69-ZZ(-)phaC (about 150 nm) [1]: 10 fold | fold increase in absorption at 490 nm against wild type PHA granules [2]: > 2 fold | fold more IgG bound per particle against particles from pBHR69-ZZ(-)phaC [3]: > 10 fold | binding capacity after heating for 15 min at 60° C. [4]: 60%
